Tests used:
Cry-J1 = molecular target: T1, Cry-J1 (Cryptomeria japonica, UniProt P18632); experiment: ELISA detection efficiency for Cry-J1 of peptides bonded to PEG-DG linkers on aminated plate (Examples 2-5); assay type: binding, Japanese cedar (Cryptomeria japonica); settings: for reactivity with respect to Cry-J1 (SH1 compared with AL1) / inclination of the 450 nm light absorbance versus antigen Cryj1 concentration: PEG-DG chain length 11.0 Å, n=2; for reactivity with respect to Cry-J1 (SH1 compared with AL1): FIG. 10; for inclination of the 450 nm light absorbance versus antigen Cryj1 concentration: antigen Cryj1 0 to 2.0 μg/mL
T1 sequence (P18632 22-374): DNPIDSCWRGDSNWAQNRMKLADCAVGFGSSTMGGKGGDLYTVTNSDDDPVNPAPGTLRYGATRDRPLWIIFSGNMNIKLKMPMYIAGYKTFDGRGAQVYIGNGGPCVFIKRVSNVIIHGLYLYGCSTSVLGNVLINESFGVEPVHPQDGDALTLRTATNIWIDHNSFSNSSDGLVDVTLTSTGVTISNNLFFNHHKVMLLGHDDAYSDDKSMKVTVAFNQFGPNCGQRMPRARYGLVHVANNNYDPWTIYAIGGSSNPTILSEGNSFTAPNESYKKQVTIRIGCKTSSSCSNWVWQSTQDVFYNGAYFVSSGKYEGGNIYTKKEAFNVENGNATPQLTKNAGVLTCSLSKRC
Procedure: In order to examine influences that the length of the linker has on the detection sensitivity of the biosensor, the following experiment was carried out. A 5 μg/mL aqueous solution of acetyl-NH-TEYTIHWWK-COOH(SH1) serving as an artificially synthesized CRY-J1 recognition peptide was mixed with a sodium hydrogen carbonate buffer solution (pH=9) containing 45 μM poly(or mono)ethylene glycol diglycidyl ether (PEG-DG) in order to cause a solid phase reaction.
As PEG-DG (poly(or mono)ethylene glycol diglycidyl ether) serving as a linker molecule, six kinds thereof with different chain lengths were selected. Specifically, sample 1: 8.3 Å chain length, degree of polymerization n=1; sample 2: 11.0 Å chain length, degree of polymerization n=2; sample 3: 16.6 Å chain length, degree of polymerization n=4; sample 4: […] chain length, degree of polymerization n=9; sample 5: 41.4 Å chain length, degree of polymerization n=13; and sample 6: 66.2 Å chain length, degree of polymerization n=22. The PEG-DG was selected from the Denacole EX series of Nagase ChemteX Corporation.
Using an aminated 96-hole ELISA method plate (Sumilon MS-3608F, available from SUMITOMO BAKELITE Co., Ltd.) as a solid phase, the solid phase reaction was completed in 24 hours at room temperature.
Blocking One, available from Nacalai Tesque, Inc., was used for the blocking, and the reaction was carried out at room temperature and completed in 24 hours.
To each of the linker molecules with different lengths, 50 μL of each of the acetyl-NH-TEYTIHWWK-COOH diluted solutions of 0 μg/mL, 0.2 μg/mL, 0.5 μg/mL, 1.0 μg/mL, 2.0 μg/mL, and 5.0 μg/mL was dropped to cause bonding between the linker and the peptide.
Anti-cedar pollen antigen Cry-J1-HRP (Horse Radish Peroxidase) (SEIKAGAKU CORPORATION) serving as a secondary antibody was prepared by diluting it 1000-fold with a phosphoric acid buffer solution containing 0.1% Tween 20, and 100 μL of this preparation solution was added to cause a reaction for one hour at room temperature. […]
The solid phase reaction was caused by mixing a 5 μg/mL aqueous solution of acetyl-NH-KTEYTIHWWK-COOH with a sodium hydrogen carbonate buffer solution (pH=9) containing 45 μM poly(or mono)ethylene glycol diglycidyl ether (PEG-DG).
The solid phase reaction was caused by mixing a 5 μg/mL aqueous solution of acetyl-NH-TEETIWWWK-COOH with a sodium hydrogen carbonate buffer solution (pH=9) containing 45 μM polyethylene glycol diglycidyl ether (PEG-DG).
As polyethylene glycol diglycidyl ether (PEG-DG), one such that the chain length was 11.0 Å and the degree of polymerization was n=2 was used.
The reaction of the artificially synthesized peptide AM was carried out in such a manner that 50 μL of each of the antigen Cryj1 diluted solutions of 0 μg/mL, 0.2 μg/mL, 0.5 μg/mL, 1.0 μg/mL, 2.0 μg/mL, and 5.0 μg/mL was dropped to cause bonding between the linker and the peptide.
For acetyl-NH-TEYTIHWWK-COOH(SH1) serving as the artificially synthesized Cry-J1 recognition peptide, a solid phase was carried out in accordance with example 2. The poly(or mono)ethylene glycol diglycidyl ether (PEG-DG) that was used was such that the chain length was 11.0 Å and the degree of polymerization was n=2.

[1] = molecular target: T2, pollen allergen protein (Cry-J1) (Cryptomeria japonica, UniProt P18632); experiment: ELISA of Cry-J1 capture by peptide immobilized on amino group-bonded plate via polyethylene diglycidyl ether (Example 1); assay type: binding, Japanese cedar (Cryptomeria japonica); settings: Cry-J1 0, 1, 5, 10 ng/mL; peptide immobilized through polyethylene diglycidyl ether; FIG. 5
T2 construct: purchased SEIKAGAKU CORPORATION
T2 sequence (P18632 22-374): T1 sequence (P18632 22-374)
Procedure: The reactivity between anti-Cry-J1 antibody H chain hypervariable area peptide (acetylated TEYTIHWWK) and pollen allergen protein (Cry-J1) was studied by the ELISA method. The experiment method can be summarized as follows.
To a well of an amino group-bonded plate (MS-3608F, available from SUMITOMO BAKELITE Co., Ltd.), a 200 μL solution of 0.0095 mg/mL acetylated TEYTIHWWK and 0.018 mg/mL polyethylene diglycidyl ether was added, and the resulting product was settled for a night at 4° C.
The peptide solution was taken out, followed by addition thereto 200 μL Blocking One (available from Nacalai Tesque, Inc.), and the resulting product was subjected to blocking processing.
After the blocking processing, the blocking solution was taken out and the well was washed with PBS containing 0.05% Tween 20. As the washing, the operation of adding and taking out 200 μL PBS containing 0.05% Tween 20 (20 mM of sodium phosphate, pH 7.4, 0.15 M of NaCl) to and of the well was carried out three times. […]
To the well, 100 μL color developing solution (available from Nacalai Tesque, Inc.) was added to cause a reaction for 10 minutes at room temperature. After the 10 minutes of reaction, 100 μL stop solution was added, and a 450 nm light absorbance was measured with a plate reader (available from Bio-Rad Laboratories, Inc.).

Substance	reactivity with respect to Cry-J1 (SH1 compared with AL1) (Cry-J1)	inclination of the 450 nm light absorbance versus antigen Cryj1 concentration (Cry-J1)	further results
acetyl-NH-TEYTIHWWK-COOH (Ac-TEYTIHWWK-OH) [artificially synthesized CRY-J1 recognition peptide; only α-amino group of N terminal T acetylated, lysine added to C terminal]	substantially the same reactivity	linear	detection efficiency with respect to Cry-J1 (inclination of 450 nm light absorbance) (Cry-J1; linker bonded at C terminal lysine, linker lengths of 15 Å or less (n=1 or 2) compared with 16.6 Å or more (n=4 or greater), FIG. 6): higher; reactivity between peptide and pollen allergen protein (Cry-J1), 450 nm light absorbance [1]: captured by the peptide depending on the concentration of the protein
acetyl-NH-KTEYTIHWW-COOH (Ac-KTEYTIHWW-OH) [anti-Cry-J1 antibody H chain hypervariable area peptide with N terminal lysine, α-amino group acetylated]			detection efficiency with respect to Cry-J1 (inclination of 450 nm light absorbance) (Cry-J1; linker bonded at N terminal lysine side chain, linker lengths of 20 to 60 Å (degree of polymerization n=4 to 9), FIG. 7): high
acetyl-NH-TEETIWWWK-COOH (Ac-TEETIWWWK-OH) [peptide in which tyrosine was changed to glutamic acid and histidine to tryptophan]	substantially the same reactivity	linear	
acetyl-NH-KTEYTIHWWK-COOH (Ac-KTEYTIHWWK-OH) [Cry-J1 recognition peptide with a lysine residue at both terminals, N terminal α-amino group acetylated]			detection efficiency with respect to Cry-J1 (inclination of 450 nm light absorbance) (Cry-J1; one linker at N terminal lysine and another at C terminal lysine, linker lengths 8.3 to 66.2 Å (n=1 to 22), FIG. 8): substantially the same irrespective of the linker length

From patent publication US20100137155A1, “BIOSENSOR, METHOD FOR FABRICATING THE SAME, DETECTING METHOD UTILIZING THE SAME” (SHARP KABUCHIKI KAISHA, priority 2006, published 2010)
